test system: AncSZ; test: phosphorylation enrichment, bacterial display (enrichment ratio); higher = better substrate or ligand; peptides without Tyr show the background
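Also: 11-residue human phosphosite peptides and single-mutation variants displayed on the E. coli surface, counted by deep sequencing, each peptide's frequency after selection divided by its frequency in the unselected input library; frequency after pTyr selection over input frequency; kinase dosed for 20-30% of maximal phosphorylation in three min.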

Sequence	phosphorylation enrichment
RPFRPYIIRGM [LRP5_Y1531_YF]	1.14
RHSGSYLVTSV [APC_Y2838]	0.759
KAWTIYRPEDS [ZBP1_Y165]	1.41
SRVTQYERNFE [SNX1_Y463_D466N]	0.763
PQGVRYIFTID [DCX_Y103_YF]	1.68
AQQPIYIRVEG [NLRP7_Y318_V319I]	1.12
NVDGKYSFLKV [GRM3_Y478_G475D_YF]	0.624
LRGEDCGFSVD [PRKCI_Y430_Y430C]	1.94
VDASYCGGRGV [ANTXR2_Y381_Y381C]	0.712
VTPVMYTYDEY [COL10A1_Y623_G618V]	1.15
IRDLKYTIENP [SND1_Y178]	1.21
AVSEGYKDFRA [CDA_Y79]	0.602
GHLYACDWISI [BEST1_Y227_Y227C]	1.21
LKYAIYFEVRE [LAMA2_Y1258_A1261V]	2.08
PRARTYCYKQE [KLHDC9_Y175_S171R]	0.847
DTKDDYSALSV [IL17RB_Y457_N458S]	1.05
ADEEEYEIIAA [FEStide_E_2014]	1.74

Sequence	phosphorylation enrichment
KHCEDYVFSYN [DSC1_Y846_C848F]	2.06
TDLAFYLVREG [ASL_Y376_K380E_YF]	1.28
SLQSEYVHYGG [CDC14A_Y591]	0.919
CQAHGYFCQPI [STK11_Y156_L160P]	0.867
NHQFDYTFHWT [CSNK1A1_Y294_D297H_YF]	1.49
EEVKAYLDFGE [CHAC2_Y78_R82G]	1.3
ENAGYYFRVSA	1.26
NTPNTYLRVNV [ADD2_Y440]	0.891
ALIKAYVKAVA [SMN1_Y43_D44V]	0.966
VMTLDYSKTVV [SETD2_Y770_V768L]	0.719
GINDDYGQLKN [NBN_Y679]	0.841
SLQSEYVHFGG [CDC14A_Y591_YF]	1.24
KAIMTYVSSFY [ACTN4_Y260]	0.976
YSNKLYYQLEQ [PDPR_Y109]	1.43
SDVDLYQVRIA [PSMD9_Y70_T74I]	0.92
LENSTYQFIHV [CRB1_Y760_R764H_YF]	1.77

test system: c-Abl (mouse); test: as above

Sequence	phosphorylation enrichment
RPFRPYIIRGM [LRP5_Y1531_YF]	0.532
RHSGSYLVTSV [APC_Y2838]	0.611
KAWTIYRPEDS [ZBP1_Y165]	0.757
SRVTQYERNFE [SNX1_Y463_D466N]	0.634
PQGVRYIFTID [DCX_Y103_YF]	1.38
AQQPIYIRVEG [NLRP7_Y318_V319I]	0.725
NVDGKYSFLKV [GRM3_Y478_G475D_YF]	0.534
LRGEDCGFSVD [PRKCI_Y430_Y430C]	1.97
VDASYCGGRGV [ANTXR2_Y381_Y381C]	0.519
VTPVMYTYDEY [COL10A1_Y623_G618V]	0.568
IRDLKYTIENP [SND1_Y178]	0.785
AVSEGYKDFRA [CDA_Y79]	0.602
GHLYACDWISI [BEST1_Y227_Y227C]	1.05
LKYAIYFEVRE [LAMA2_Y1258_A1261V]	2.14
PRARTYCYKQE [KLHDC9_Y175_S171R]	0.91
DTKDDYSALSV [IL17RB_Y457_N458S]	0.815
ADEEEYEIIAA [FEStide_E_2014]	1.09

Sequence	phosphorylation enrichment
KHCEDYVFSYN [DSC1_Y846_C848F]	0.778
TDLAFYLVREG [ASL_Y376_K380E_YF]	0.85
SLQSEYVHYGG [CDC14A_Y591]	0.6
CQAHGYFCQPI [STK11_Y156_L160P]	0.783
NHQFDYTFHWT [CSNK1A1_Y294_D297H_YF]	0.803
EEVKAYLDFGE [CHAC2_Y78_R82G]	0.944
ENAGYYFRVSA	0.775
NTPNTYLRVNV [ADD2_Y440]	0.587
ALIKAYVKAVA [SMN1_Y43_D44V]	0.68
VMTLDYSKTVV [SETD2_Y770_V768L]	0.643
GINDDYGQLKN [NBN_Y679]	0.499
SLQSEYVHFGG [CDC14A_Y591_YF]	0.734
KAIMTYVSSFY [ACTN4_Y260]	0.755
YSNKLYYQLEQ [PDPR_Y109]	0.82
SDVDLYQVRIA [PSMD9_Y70_T74I]	0.579
LENSTYQFIHV [CRB1_Y760_R764H_YF]	1.56

biological target: MERTK (UniProt Q12866); test: as above
Sequence (Q12866 whole entry, looked up): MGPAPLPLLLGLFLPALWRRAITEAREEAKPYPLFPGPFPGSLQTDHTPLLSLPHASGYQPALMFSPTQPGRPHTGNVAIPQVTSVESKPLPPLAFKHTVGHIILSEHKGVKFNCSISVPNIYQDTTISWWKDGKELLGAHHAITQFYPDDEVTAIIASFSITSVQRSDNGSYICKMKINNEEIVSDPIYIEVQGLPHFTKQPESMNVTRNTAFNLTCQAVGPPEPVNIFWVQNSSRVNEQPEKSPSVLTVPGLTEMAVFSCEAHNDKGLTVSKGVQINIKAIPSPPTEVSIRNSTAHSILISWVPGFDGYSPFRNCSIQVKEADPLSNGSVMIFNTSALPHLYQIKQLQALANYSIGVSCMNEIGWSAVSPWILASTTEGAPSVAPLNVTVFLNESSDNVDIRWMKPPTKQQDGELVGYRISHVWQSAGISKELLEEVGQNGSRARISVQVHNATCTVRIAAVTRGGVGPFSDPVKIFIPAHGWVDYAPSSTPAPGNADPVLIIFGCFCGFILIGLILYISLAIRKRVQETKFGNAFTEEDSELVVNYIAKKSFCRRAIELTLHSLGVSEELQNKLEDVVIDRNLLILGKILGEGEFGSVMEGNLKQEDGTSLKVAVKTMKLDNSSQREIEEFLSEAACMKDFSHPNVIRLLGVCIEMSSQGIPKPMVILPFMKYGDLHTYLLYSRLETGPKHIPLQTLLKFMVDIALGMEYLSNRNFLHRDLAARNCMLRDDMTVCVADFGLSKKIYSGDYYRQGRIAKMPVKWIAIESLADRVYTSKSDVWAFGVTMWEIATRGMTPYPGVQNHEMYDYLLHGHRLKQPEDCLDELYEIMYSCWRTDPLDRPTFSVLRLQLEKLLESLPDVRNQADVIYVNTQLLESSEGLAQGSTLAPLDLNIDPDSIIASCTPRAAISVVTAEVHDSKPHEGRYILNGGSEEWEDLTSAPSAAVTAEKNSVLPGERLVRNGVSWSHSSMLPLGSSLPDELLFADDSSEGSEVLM

Sequence	phosphorylation enrichment
RPFRPYIIRGM [LRP5_Y1531_YF]	0.781
RHSGSYLVTSV [APC_Y2838]	0.682
KAWTIYRPEDS [ZBP1_Y165]	0.478
SRVTQYERNFE [SNX1_Y463_D466N]	0.379
PQGVRYIFTID [DCX_Y103_YF]	0.664
AQQPIYIRVEG [NLRP7_Y318_V319I]	0.641
NVDGKYSFLKV [GRM3_Y478_G475D_YF]	0.508
LRGEDCGFSVD [PRKCI_Y430_Y430C]	1.25
VDASYCGGRGV [ANTXR2_Y381_Y381C]	0.559
VTPVMYTYDEY [COL10A1_Y623_G618V]	0.912
IRDLKYTIENP [SND1_Y178]	0.407
AVSEGYKDFRA [CDA_Y79]	0.449
GHLYACDWISI [BEST1_Y227_Y227C]	4.89
LKYAIYFEVRE [LAMA2_Y1258_A1261V]	0.954
PRARTYCYKQE [KLHDC9_Y175_S171R]	0.483
DTKDDYSALSV [IL17RB_Y457_N458S]	0.441
ADEEEYEIIAA [FEStide_E_2014]	0.564

Sequence	phosphorylation enrichment
KHCEDYVFSYN [DSC1_Y846_C848F]	0.489
TDLAFYLVREG [ASL_Y376_K380E_YF]	0.501
SLQSEYVHYGG [CDC14A_Y591]	0.558
CQAHGYFCQPI [STK11_Y156_L160P]	0.407
NHQFDYTFHWT [CSNK1A1_Y294_D297H_YF]	0.573
EEVKAYLDFGE [CHAC2_Y78_R82G]	0.422
ENAGYYFRVSA	0.347
NTPNTYLRVNV [ADD2_Y440]	0.347
ALIKAYVKAVA [SMN1_Y43_D44V]	0.481
VMTLDYSKTVV [SETD2_Y770_V768L]	0.372
GINDDYGQLKN [NBN_Y679]	0.296
SLQSEYVHFGG [CDC14A_Y591_YF]	0.509
KAIMTYVSSFY [ACTN4_Y260]	0.424
YSNKLYYQLEQ [PDPR_Y109]	6.24
SDVDLYQVRIA [PSMD9_Y70_T74I]	0.463
LENSTYQFIHV [CRB1_Y760_R764H_YF]	10

biological target: FGFR3 (UniProt P22607); test: as above
Sequence (P22607 whole entry, looked up): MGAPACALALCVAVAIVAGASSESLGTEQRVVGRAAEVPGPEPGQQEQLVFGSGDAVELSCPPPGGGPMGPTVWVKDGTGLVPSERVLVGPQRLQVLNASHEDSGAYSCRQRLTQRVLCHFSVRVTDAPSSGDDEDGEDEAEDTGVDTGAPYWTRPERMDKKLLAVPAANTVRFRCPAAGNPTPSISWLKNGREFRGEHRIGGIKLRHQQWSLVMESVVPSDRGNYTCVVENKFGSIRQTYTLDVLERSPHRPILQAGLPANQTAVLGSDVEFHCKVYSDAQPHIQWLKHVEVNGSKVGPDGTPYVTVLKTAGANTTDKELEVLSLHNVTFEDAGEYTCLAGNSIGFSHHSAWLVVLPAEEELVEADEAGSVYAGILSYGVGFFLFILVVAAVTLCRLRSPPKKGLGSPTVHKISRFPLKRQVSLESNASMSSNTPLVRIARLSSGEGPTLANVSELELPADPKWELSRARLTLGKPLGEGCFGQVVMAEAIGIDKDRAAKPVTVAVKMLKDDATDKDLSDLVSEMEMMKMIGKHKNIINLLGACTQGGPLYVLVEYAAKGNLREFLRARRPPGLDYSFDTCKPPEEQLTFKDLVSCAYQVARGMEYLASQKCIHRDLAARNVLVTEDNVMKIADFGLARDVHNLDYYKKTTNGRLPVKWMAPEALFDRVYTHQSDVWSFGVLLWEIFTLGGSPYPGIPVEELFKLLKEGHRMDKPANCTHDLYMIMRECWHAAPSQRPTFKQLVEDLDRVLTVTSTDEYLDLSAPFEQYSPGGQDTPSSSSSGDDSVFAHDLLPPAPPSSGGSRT

Sequence	phosphorylation enrichment
RPFRPYIIRGM [LRP5_Y1531_YF]	0.88
RHSGSYLVTSV [APC_Y2838]	0.451
KAWTIYRPEDS [ZBP1_Y165]	0.643
SRVTQYERNFE [SNX1_Y463_D466N]	0.499
PQGVRYIFTID [DCX_Y103_YF]	0.96
AQQPIYIRVEG [NLRP7_Y318_V319I]	0.702
NVDGKYSFLKV [GRM3_Y478_G475D_YF]	0.505
LRGEDCGFSVD [PRKCI_Y430_Y430C]	1.41
VDASYCGGRGV [ANTXR2_Y381_Y381C]	0.463
VTPVMYTYDEY [COL10A1_Y623_G618V]	0.795
IRDLKYTIENP [SND1_Y178]	0.807
AVSEGYKDFRA [CDA_Y79]	0.542
GHLYACDWISI [BEST1_Y227_Y227C]	1.06
LKYAIYFEVRE [LAMA2_Y1258_A1261V]	1.39
PRARTYCYKQE [KLHDC9_Y175_S171R]	0.557
DTKDDYSALSV [IL17RB_Y457_N458S]	0.828
ADEEEYEIIAA [FEStide_E_2014]	1.08

Sequence	phosphorylation enrichment
KHCEDYVFSYN [DSC1_Y846_C848F]	1.98
TDLAFYLVREG [ASL_Y376_K380E_YF]	1.01
SLQSEYVHYGG [CDC14A_Y591]	0.95
CQAHGYFCQPI [STK11_Y156_L160P]	0.538
NHQFDYTFHWT [CSNK1A1_Y294_D297H_YF]	2.26
EEVKAYLDFGE [CHAC2_Y78_R82G]	0.942
ENAGYYFRVSA	0.719
NTPNTYLRVNV [ADD2_Y440]	0.598
ALIKAYVKAVA [SMN1_Y43_D44V]	0.639
VMTLDYSKTVV [SETD2_Y770_V768L]	0.701
GINDDYGQLKN [NBN_Y679]	0.61
SLQSEYVHFGG [CDC14A_Y591_YF]	0.972
KAIMTYVSSFY [ACTN4_Y260]	0.719
YSNKLYYQLEQ [PDPR_Y109]	7.22
SDVDLYQVRIA [PSMD9_Y70_T74I]	0.583
LENSTYQFIHV [CRB1_Y760_R764H_YF]	4.82
